Experimental data published in the supplement of paper PMC11865577.

Legend:
Assay in all cases: pull-down binding Z-score (relative to library population); higher = stronger binding
[1] = system: TO-N3-2 (biotin conjugate); conditions: RNA library: Library-2
Summary of the method: (§1)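 A heat-folded, dye-end-labelled (Cy5 or Cy3) RNA library (1 μg, phosphate/NaCl/KCl buffer) was exposed for 60 min at 25 °C to streptavidin beads holding 100 pmol of biotin-conjugated small molecule. RNA retained on the beads was eluted in hot SDS and hybridised to a DNA barcode microarray for 20 h at 55.5 °C. Binding scores were Z-scores against the library mean and standard deviation, calculated after subtracting beads alone and taking trimmed means of replicate probes.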

[2] = system: TO-3-N3 (biotin conjugate); conditions: RNA library: Library-2
Summary of the method: as §1

[3] = system: TO-3-N3-2 (biotin conjugate); conditions: RNA library: Library-2
Summary of the method: as §1

[4] = system: TO-N3 (biotin conjugate); conditions: RNA library: Library-2
Summary of the method: as §1

[5] = system: G-clamp-N3 (biotin conjugate); conditions: RNA library: Library-1 (pre-miRNA loops + repeats)
Summary of the method: as §1

Row | Sequence | pull-down binding Z-score [1] | pull-down binding Z-score [2] | pull-down binding Z-score [3] | pull-down binding Z-score [4] | pull-down binding Z-score [5]
1 | AUCUUCCUGACCUGGUAAUAAUUAGGUGAGAAGGAU [hsa-mir-8069-2_8069-1] | -1.12 | -0.958 | -0.589 | -1.2 | 0.78
2 | AUGAGAAAUUGGUUUCAA [hsa-mir-8063] | -0.557 | -0.191 | -0.245 | -0.161 | 1.5
3 | AUGAGCUAAAAAUCCCCAAGCUCU [hsa-mir-4769] | -0.0561 | -0.414 | -0.358 | -0.477 | -0.0764
4 | AUGAUAUAUUGUGAGAGCCAUGUCAU [hsa-mir-6718] | -0.393 | 0.0536 | -0.0702 | -0.0603 | 0.0796
5 | AUGAUUUUUGGGGUCA [hsa-mir-4678] | -0.328 | -0.0616 | -0.1 | -0.0941 | 1.23
6 | AUGCACCCAUAUUUUAAUAUCAAACUAUGACAAAUU [hsa-mir-3974] | -0.358 | -0.386 | -0.134 | -0.417 | -0.337
7 | AUGCAUGGCUGGUGGCGGCGUGCAG [hsa-mir-6722] | 2.13 | 0.897 | 0.74 | 1.56 | 0.533
8 | AUGCCCCAGGUGACGUGCUGGGCU [hsa-mir-4526] | 0.888 | 0.205 | 0.0558 | 0.495 | -0.192
9 | AUGCCUGAGAAUAUAUGAAGGAGGCU [hsa-mir-204] | 0.965 | 0.0552 | 0.374 | 0.525 | 2.31
10 | AUGCUAAGUCCAUGGGCAAACAU [hsa-mir-5704] | 0.235 | -0.258 | -0.165 | -0.088 | -0.176
11 | AUGGAGAACGCCCCCACCAGUUCCCAC [hsa-mir-6767] | 0.67 | 1.67 | 0.564 | 1.68 | -0.992
12 | AUGGAGGCUGCUUCUCCUCAGCAGCUGCCAUA [hsa-mir-3651] | 0.366 | -0.15 | -0.382 | -0.13 | 0.277
13 | AUGGAUAUGGGAACUGUGAUGUCCA [hsa-mir-4768] | 0.232 | -0.305 | 0.0446 | -0.136 | 1.17
14 | AUGGCAUUUAAGGAUUGCUAU [hsa-mir-4477a] | -0.675 | -0.716 | -0.473 | -0.893 | 0.671
15 | AUGGGAGCCCAGAGACGUCCUAU [hsa-mir-8074] | 0.669 | -0.304 | -0.433 | 0.0134 | 0.253
16 | AUGGGGCAGCUGGGAUGGUCCAAAAGGGUGGCCUCA [hsa-mir-1226] | 1.17 | 0.729 | 0.406 | 1.05 | 1.14
17 | AUGGUCUCUAUAUUUAUGAUGAUUAA [hsa-mir-889] | 0.0111 | 0.533 | 0.373 | 0.577 | -0.798
18 | AUGGUGUUUGUGAGUUGAUUGACAUCGU [hsa-mir-6506] | 0.0463 | -0.398 | -0.457 | -0.408 | -0.212
19 | AUGGUUAAUGUUCCACAGCCA [hsa-mir-5190] | 0.372 | -0.134 | 0.157 | 0.0767 | -0.723

Row | Sequence | pull-down binding Z-score [1] | pull-down binding Z-score [2] | pull-down binding Z-score [3] | pull-down binding Z-score [4] | pull-down binding Z-score [5]
20 | AUGGUUCCUAUUCUGAUCAAUAAACAUGGUUUGAGCCUAGUUACAAUGAUCUAAAAUUCACGGUCCAA [hsa-mir-548o] | -0.0344 | -0.961 | -0.193 | -0.587 | -1.15
21 | AUGGUUUAGAGUUACACCCUGGGAGUUAACUGU [hsa-let-7c] | 0.0342 | 0.351 | 0.565 | 0.437 | -0.228
22 | AUGUCCCUUUAGUUCAAAGU [hsa-mir-2052] | -0.324 | -0.246 | -0.0713 | -0.283 | -2.06
23 | AUGUCUCAGGUCCCCAGCUGAGUCAA [hsa-mir-6513] | 0.47 | 0.633 | 0.129 | 0.609 | -1.3
24 | AUGUCUGCUGGGGAACCGGGGCU [hsa-mir-4518] | 1.39 | 0.587 | 0.297 | 0.984 | 1.1
25 | AUGUGAUGUCACUGAGGAAAUCACAC [hsa-mir-216b] | -0.00778 | -0.223 | -0.272 | -0.124 | 0.862
26 | AUGUGAUGUGAGCAGAUGGUUCUCACU [hsa-mir-6758] | 0.176 | -0.532 | -0.346 | -0.621 | -0.46
27 | AUGUGAUUGCUGUCCCAAACUCAUGU [hsa-mir-135b] | -0.0979 | -0.305 | 0.00564 | -0.126 | -0.794
28 | AUGUGUUGUGAUGGCACAGCGU [hsa-mir-592] | 0.256 | -0.831 | -0.582 | -0.817 | -0.64
29 | AUGUUCACUUGAUUAAUGGCGAAUAU [hsa-mir-1185-2_1185-1] | -0.673 | -0.629 | -0.39 | -0.89 | 0.337
30 | AUGUUCGCUUCAUUCAUCAUGAAUAA [hsa-mir-655] | -0.299 | 0.297 | 0.089 | 0.385 | -0.248
31 | AUGUUUAUUGUAAAGAUACUUU [hsa-mir-1305] | -0.121 | -0.643 | -0.418 | -0.517 | -0.249
32 | AUUACUUGUGUUCUAUAUAAAGUAUU [hsa-mir-92a-2] | -0.831 | -0.393 | -0.0463 | -0.716 | -0.855
33 | AUUAGACAGAAAAAAGUUAGACACAAAAAAUUGUGUCUAAU [hsa-mir-4759] | -0.525 | 0.284 | 0.561 | 0.136 | -0.0386
34 | AUUAUGUUUUGGACAUAGAAACAUAAC [hsa-mir-5688] | -0.665 | -0.878 | -0.377 | -0.981 | -0.841
35 | AUUCAGACUCAGGU [hsa-mir-921] | -0.0427 | -0.232 | -0.0856 | -0.204 | -0.651
36 | AUUCUGAUGAUCACCUAGCCAGAAU [hsa-mir-5583-2] | 0.317 | 1.52 | 0.566 | 1.45 | -0.301
37 | AUUCUGGACACCAG [hsa-mir-147b] | 0.326 | 0.0367 | 0.387 | 0.311 | -0.497
